{
  "source": "patent US20240317834A1",
  "about": "“COMPOSITIONS AND METHODS FOR NEUROLOGICAL DISEASES” (CODA BIOTHERAPEUTICS, INC., priority 2020, published 2024)",
  "molecules": {"B1": {"name": "CODA805: engineered chimeric LGIC receptor, Y115D, S170T in SEQ ID NO: 33 (protein)", "chain": "MRCSPGGVWLALAASLLHVSLQGEFQRKLYKELVKNYNPLERPVANDSQPLTVYFSLSLLQIMDVDEKNQVLTTNIWLQMSWTDHYLQWNVSEYPGVKTVRFPDGQIWKPDILLDNSADERFDATFHTNVLVNSSGHCQYLPPGIFKSSCPMDLKNFPMDVQTCKLKFGTWSYGGWSLDLQMQEADISGYIPNGEWDLVGIPGKRSERFYECCKEPYPDVTFTVTMRRRMGYYLIQMYIPSLLIVILSWISFWINMDAAPARVGLGITTVLTMTTQSSGSRASLPKVSYVKAIDIWMAVCLLFVFSALLEYAAVNFVSRQHKELLRFRRKRRHHKSPMLNLFQEDEAGEGRFNFSAYGMGPACLQAKDGISVKGANNSNTTNPPPAPSKSPEEMRKLFIQRAKKIDKISRIGFPMAFLIFNMFYWIIYKIVRREDVHNQ", "modifications": "synthetic sequence of chimeric LGIC"}, "B2": {"name": "CODA535: engineered chimeric LGIC receptor, L131T, S172D in SEQ ID NO: 33 (protein)", "chain": "B1 chain with D115Y, L131T, T170S, S172D", "modifications": "synthetic sequence of chimeric LGIC"}},
  "system": "Lenti-X 293T cells",
  "assay": "YFP fluorescence quenching anion reporter plate reader assay of engineered receptors stimulated with acetylcholine or a non-native ligand",
  "type": "cell-based",
  "details": "for percent quench of YFP fluorescence, 10 uM ach: acetylcholine 10 uM; for percent quench of YFP fluorescence, 100 uM ach: acetylcholine 100 uM; for percent quench of YFP fluorescence, 1 mM ach: acetylcholine 1 mM; for percent quench of YFP fluorescence, 3 mM ach: acetylcholine 3 mM",
  "outline": "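YFP quench was followed for about 1 min 43 s after ligand delivered in iodide-based ECS, pH 7.2. Values are end-of-read fluorescence (last 10 s) divided by the pre-ligand baseline (15 s). Cells were LX293T, transfected with receptor DNA a day before the assay.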",
  "note": "Positions count from the first letter of the chain named. Names and notes keep the numbering of the source.",
  "data": [
    {"molecule": "B1", "values": [
      {"measurement": "YFP fluorescence quenching using CNL001", "setting": "1 nM CNL001, first column", "value": "−10.729", "unit": "%"},
      {"measurement": "YFP fluorescence quenching using CNL001", "setting": "1 nM CNL001, second column", "value": "−15.278", "unit": "%"},
      {"measurement": "YFP fluorescence quenching using TC-5619/Bradanicline", "setting": "1 nM brd", "value": "−9.78", "unit": "%"},
      {"measurement": "YFP fluorescence quenching using TC-5619/Bradanicline", "setting": "3 nM brd", "value": "−12.06", "unit": "%"},
      {"measurement": "YFP fluorescence quenching using CNL001", "setting": "10 nM CNL001, first column", "value": "−20.403", "unit": "%"},
      {"measurement": "YFP fluorescence quenching using CNL001", "setting": "10 nM CNL001, second column", "value": "−14.905", "unit": "%"},
      {"measurement": "YFP fluorescence quenching using TC-5619/Bradanicline", "setting": "10 nM brd", "value": "−9.02", "unit": "%"},
      {"measurement": "YFP fluorescence quenching using TC-5619/Bradanicline", "setting": "30 nM brd", "value": "−16.3", "unit": "%"},
      {"measurement": "YFP fluorescence quenching using Facinicline", "setting": "30 nM fac", "value": 38.08},
      {"measurement": "YFP fluorescence quenching using CNL001", "setting": "50 nM CNL001, first column", "value": "−14.303", "unit": "%"},
      {"measurement": "YFP fluorescence quenching using CNL001", "setting": "50 nM CNL001, second column", "value": "−15.741", "unit": "%"},
      {"measurement": "YFP fluorescence quenching using ABT-126", "setting": "50 nM abt", "value": "−11.83", "unit": "%"},
      {"measurement": "YFP fluorescence quenching using CNL001", "setting": "100 nM CNL001, first column", "value": "−12.637", "unit": "%"},
      {"measurement": "YFP fluorescence quenching using CNL001", "setting": "100 nM CNL001, second column", "value": "−10.606", "unit": "%"},
      {"measurement": "YFP fluorescence quenching using CNL002", "setting": "100 nM CNL002", "value": "−18.17", "unit": "%"},
      {"measurement": "YFP fluorescence quenching using ABT-126", "setting": "100 nM abt", "value": "−11.5", "unit": "%"},
      {"measurement": "YFP fluorescence quenching using AZD-0328", "setting": "100 nM azd0328", "value": "−0.71", "unit": "%"},
      {"measurement": "YFP fluorescence quenching using TC-5619/Bradanicline", "setting": "100 nM brd", "value": "−7.44", "unit": "%"},
      {"measurement": "YFP fluorescence quenching using Facinicline", "setting": "100 nM fac", "value": "−14.37"},
      {"measurement": "YFP fluorescence quenching using ABT-126", "setting": "300 nM abt", "value": "−8.01", "unit": "%"},
      {"measurement": "YFP fluorescence quenching using AZD-0328", "setting": "300 nM azd0328", "value": "−1.73", "unit": "%"},
      {"measurement": "YFP fluorescence quenching using TC-5619/Bradanicline", "setting": "300 nM brd", "value": "−10.93", "unit": "%"},
      {"measurement": "YFP fluorescence quenching using Facinicline", "setting": "300 nM fac", "value": 19.41},
      {"measurement": "YFP fluorescence quenching using CNL001", "setting": "1 uM CNL001, first column", "value": "−13.535", "unit": "%"},
      {"measurement": "YFP fluorescence quenching using CNL001", "setting": "1 uM CNL001, second column", "value": "−11.335", "unit": "%"},
      {"measurement": "YFP fluorescence quenching using CNL002", "setting": "1 uM CNL002", "value": "−15.2", "unit": "%"},
      {"measurement": "YFP fluorescence quenching using ABT-126", "setting": "1 uM abt", "value": "−9.34", "unit": "%"},
      {"measurement": "YFP fluorescence quenching using TC-5619/Bradanicline", "setting": "1 uM brd", "value": "−4.55", "unit": "%"},
      {"measurement": "YFP fluorescence quenching using TC-6987", "setting": "1 uM tc6987", "value": 31.9},
      {"measurement": "YFP fluorescence quenching using Facinicline", "setting": "10 uM fac", "value": 67.33},
      {"measurement": "YFP fluorescence quenching using TC-6987", "setting": "10 uM tc6987", "value": 25.54},
      {"measurement": "YFP fluorescence quenching using CNL002", "setting": "30 uM CNL002", "value": "−14", "unit": "%"},
      {"measurement": "YFP fluorescence quenching using AZD-0328", "setting": "30 uM azd0328", "value": 47.39, "unit": "%"},
      {"measurement": "YFP fluorescence quenching using Facinicline", "setting": "30 uM fac", "value": 79.67},
      {"measurement": "YFP fluorescence quenching using TC-6987", "setting": "500 uM tc6987", "value": 21.13},
      {"measurement": "percent quench of YFP fluorescence, 10 uM ach", "value": "−0.46", "unit": "%"},
      {"measurement": "percent quench of YFP fluorescence, 100 uM ach", "value": "−4.93", "unit": "%"},
      {"measurement": "percent quench of YFP fluorescence, 1 mM ach", "value": "−11.18", "unit": "%"},
      {"measurement": "percent quench of YFP fluorescence, 3 mM ach", "value": "−3.53", "unit": "%"}
    ]},
    {"molecule": "B2", "values": [
      {"measurement": "YFP fluorescence quenching using CNL001", "setting": "1 nM CNL001, first column", "value": 8.736, "unit": "%"},
      {"measurement": "YFP fluorescence quenching using CNL001", "setting": "1 nM CNL001, second column", "value": 24.572, "unit": "%"},
      {"measurement": "YFP fluorescence quenching using CNL001", "setting": "10 nM CNL001, first column", "value": 60.552, "unit": "%"},
      {"measurement": "YFP fluorescence quenching using CNL001", "setting": "10 nM CNL001, second column", "value": 63.09, "unit": "%"},
      {"measurement": "YFP fluorescence quenching using Facinicline", "setting": "30 nM fac", "value": "−21.36"},
      {"measurement": "YFP fluorescence quenching using CNL001", "setting": "50 nM CNL001, first column", "value": 73.242, "unit": "%"},
      {"measurement": "YFP fluorescence quenching using CNL001", "setting": "50 nM CNL001, second column", "value": 73.889, "unit": "%"},
      {"measurement": "YFP fluorescence quenching using ABT-126", "setting": "50 nM abt", "value": "−11.09", "unit": "%"},
      {"measurement": "YFP fluorescence quenching using CNL001", "setting": "100 nM CNL001, first column", "value": 76.147, "unit": "%"},
      {"measurement": "YFP fluorescence quenching using CNL001", "setting": "100 nM CNL001, second column", "value": 76.21, "unit": "%"},
      {"measurement": "YFP fluorescence quenching using CNL002", "setting": "100 nM CNL002", "value": 1.23, "unit": "%"},
      {"measurement": "YFP fluorescence quenching using ABT-126", "setting": "100 nM abt", "value": "−10.37", "unit": "%"},
      {"measurement": "YFP fluorescence quenching using AZD-0328", "setting": "100 nM azd0328", "value": "−7.02", "unit": "%"},
      {"measurement": "YFP fluorescence quenching using ABT-126", "setting": "300 nM abt", "value": "−4", "unit": "%"},
      {"measurement": "YFP fluorescence quenching using AZD-0328", "setting": "300 nM azd0328", "value": "−0.48", "unit": "%"},
      {"measurement": "YFP fluorescence quenching using Facinicline", "setting": "300 nM fac", "value": 4.17},
      {"measurement": "YFP fluorescence quenching using CNL001", "setting": "1 uM CNL001, first column", "value": 78.988, "unit": "%"},
      {"measurement": "YFP fluorescence quenching using CNL001", "setting": "1 uM CNL001, second column", "value": 78.818, "unit": "%"},
      {"measurement": "YFP fluorescence quenching using CNL002", "setting": "1 uM CNL002", "value": 35.77, "unit": "%"},
      {"measurement": "YFP fluorescence quenching using ABT-126", "setting": "1 uM abt", "value": 4.05, "unit": "%"},
      {"measurement": "YFP fluorescence quenching using TC-6987", "setting": "1 uM tc6987", "value": "−21.8"},
      {"measurement": "YFP fluorescence quenching using TC-6987", "setting": "10 uM tc6987", "value": "−27.08"},
      {"measurement": "YFP fluorescence quenching using CNL002", "setting": "30 uM CNL002", "value": 68.29, "unit": "%"},
      {"measurement": "YFP fluorescence quenching using AZD-0328", "setting": "30 uM azd0328", "value": 70.16, "unit": "%"},
      {"measurement": "YFP fluorescence quenching using Facinicline", "setting": "30 uM fac", "value": 65.94},
      {"measurement": "YFP fluorescence quenching using TC-6987", "setting": "500 uM tc6987", "value": "−21.56"},
      {"measurement": "percent quench of YFP fluorescence, 30 nM TC-6683", "setting": "TC-6683 30 nM", "value": "−29.362", "unit": "%"},
      {"measurement": "percent quench of YFP fluorescence, 300 nM TC-6683", "setting": "TC-6683 300 nM", "value": "−28.954", "unit": "%"},
      {"measurement": "percent quench of YFP fluorescence, 3 uM TC-6683", "setting": "TC-6683 3 uM", "value": "−23.708", "unit": "%"},
      {"measurement": "percent quench of YFP fluorescence, 30 uM TC-6683", "setting": "TC-6683 30 uM", "value": "−23.431", "unit": "%"},
      {"measurement": "percent quench of YFP fluorescence, 100 uM TC-6683", "setting": "TC-6683 100 uM", "value": "−18.324", "unit": "%"},
      {"measurement": "percent quench of YFP fluorescence, 10 uM ach", "value": "−12.24", "unit": "%"},
      {"measurement": "percent quench of YFP fluorescence, 100 uM ach", "value": "−26.23", "unit": "%"},
      {"measurement": "percent quench of YFP fluorescence, 1 mM ach", "value": "−1.16", "unit": "%"},
      {"measurement": "percent quench of YFP fluorescence, 3 mM ach", "value": 2.97, "unit": "%"}
    ]}
  ]
}
